Source: article PMC9482650, “Quantitative fragmentomics allow affinity mapping of interactomes” (Nature Communications, 2022)

Key:
Assay in all cases: holdup assay
Parameters in all cases: key: below the threshold = too weak to quantify, mostly under pKd 3.1 to 4
APBA2_1, Q99767 = molecular target: T1, APBA2_1, Q99767
T1 sequence (Q99767 563-664, limits assumed, looked up): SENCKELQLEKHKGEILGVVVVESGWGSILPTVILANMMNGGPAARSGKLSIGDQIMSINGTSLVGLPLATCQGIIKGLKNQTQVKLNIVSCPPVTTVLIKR

APBA3_1, O96018 = molecular target: T2, APBA3_1, O96018
T2 sequence (O96018 389-490, limits assumed, looked up): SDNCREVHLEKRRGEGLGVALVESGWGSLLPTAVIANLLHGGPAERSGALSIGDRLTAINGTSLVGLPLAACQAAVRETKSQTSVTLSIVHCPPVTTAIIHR

DFNB31_3, Q9P202 = molecular target: T3, DFNB31_3, Q9P202
T3 sequence (Q9P202 811-907, limits assumed, looked up): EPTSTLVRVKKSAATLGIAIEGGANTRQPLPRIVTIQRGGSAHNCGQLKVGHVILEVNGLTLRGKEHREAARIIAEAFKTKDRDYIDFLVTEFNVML

DLG2_3, Q15700 = molecular target: DLG2_3, Q15700
DLG4_2, P78352 = molecular target: DLG4_2, P78352
DLG4_2, P78352, sequence (P78352 155-259): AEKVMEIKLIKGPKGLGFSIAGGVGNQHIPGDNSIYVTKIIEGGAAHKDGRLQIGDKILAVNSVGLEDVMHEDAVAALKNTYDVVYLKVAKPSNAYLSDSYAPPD

FRMPD2_2, Q68DX3 = molecular target: FRMPD2_2, Q68DX3
FRMPD2_2, Q68DX3, sequence (Q68DX3 944-1038): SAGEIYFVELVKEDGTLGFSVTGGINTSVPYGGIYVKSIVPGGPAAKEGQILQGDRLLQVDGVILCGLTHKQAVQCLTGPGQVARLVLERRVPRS

FRMPD2_3, Q68DX3 = molecular target: FRMPD2_3, Q68DX3
FRMPD2_3, Q68DX3, sequence (Q68DX3 1073-1166): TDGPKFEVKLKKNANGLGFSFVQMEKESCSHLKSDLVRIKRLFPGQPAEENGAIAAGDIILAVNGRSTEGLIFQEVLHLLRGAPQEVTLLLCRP

GIPC2, Q8TF65 = molecular target: GIPC2, Q8TF65
GIPC2, Q8TF65, sequence (Q8TF65 112-203): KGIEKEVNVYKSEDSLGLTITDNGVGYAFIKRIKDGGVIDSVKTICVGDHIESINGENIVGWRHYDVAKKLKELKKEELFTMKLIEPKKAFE

GORASP1, Q9BQQ3 = molecular target: GORASP1, Q9BQQ3
GORASP1, Q9BQQ3, sequence (Q9BQQ3 1-208): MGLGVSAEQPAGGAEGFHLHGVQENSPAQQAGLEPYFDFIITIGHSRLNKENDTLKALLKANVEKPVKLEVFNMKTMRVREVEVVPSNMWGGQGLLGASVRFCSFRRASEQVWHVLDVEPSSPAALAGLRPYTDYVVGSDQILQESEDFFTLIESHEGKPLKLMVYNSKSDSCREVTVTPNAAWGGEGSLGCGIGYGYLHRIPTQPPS

GRIP1_2, Q9Y3R0 = molecular target: T4, GRIP1_2, Q9Y3R0
T4 sequence (Q9Y3R0 145-248, limits assumed, looked up): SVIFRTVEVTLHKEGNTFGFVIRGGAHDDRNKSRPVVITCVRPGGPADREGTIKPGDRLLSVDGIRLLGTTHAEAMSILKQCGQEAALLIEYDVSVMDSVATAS

GRIP2_7, Q9C0E4 = molecular target: GRIP2_7, Q9C0E4
GRIP2_7, Q9C0E4, sequence (Q9C0E4 934-1023): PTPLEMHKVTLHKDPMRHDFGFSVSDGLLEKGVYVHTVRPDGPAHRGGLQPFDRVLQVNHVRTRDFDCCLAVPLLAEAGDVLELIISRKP

Inadl_1, Q8NI35 = molecular target: Inadl_1, Q8NI35
Inadl_1, Q8NI35, sequence (Q8NI35 113-229): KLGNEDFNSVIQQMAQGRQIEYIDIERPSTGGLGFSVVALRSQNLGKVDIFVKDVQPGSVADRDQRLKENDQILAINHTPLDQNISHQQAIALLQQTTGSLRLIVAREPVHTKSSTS

Inadl_2, Q8NI35 = molecular target: Inadl_2, Q8NI35
Inadl_2, Q8NI35, sequence (Q8NI35 238-335): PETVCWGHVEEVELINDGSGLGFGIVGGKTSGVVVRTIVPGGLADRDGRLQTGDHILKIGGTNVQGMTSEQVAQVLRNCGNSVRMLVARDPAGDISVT

MAGI2_6, Q86UL8 = molecular target: MAGI2_6, Q86UL8
MAGI2_6, Q86UL8, sequence (Q86UL8 1141-1229): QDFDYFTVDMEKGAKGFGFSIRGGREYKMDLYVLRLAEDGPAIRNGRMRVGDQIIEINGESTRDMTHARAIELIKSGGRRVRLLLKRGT

NHERF4_2, Q86UT5 = molecular target: NHERF4_2, Q86UT5
NHERF4_2, Q86UT5, sequence (Q86UT5 220-308): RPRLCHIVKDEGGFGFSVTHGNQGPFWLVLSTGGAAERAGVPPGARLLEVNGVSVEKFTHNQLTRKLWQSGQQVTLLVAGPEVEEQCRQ

PDZD7_3, Q9H5P4 = molecular target: T5, PDZD7_3, Q9H5P4
T5 sequence (Q9H5P4 857-944, limits assumed, looked up): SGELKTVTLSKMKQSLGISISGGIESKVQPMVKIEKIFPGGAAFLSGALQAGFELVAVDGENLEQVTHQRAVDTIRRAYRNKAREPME

PDZRN3_1, Q9UPQ7 = molecular target: T6, PDZRN3_1, Q9UPQ7
T6 sequence (Q9UPQ7 244-349, limits assumed, looked up): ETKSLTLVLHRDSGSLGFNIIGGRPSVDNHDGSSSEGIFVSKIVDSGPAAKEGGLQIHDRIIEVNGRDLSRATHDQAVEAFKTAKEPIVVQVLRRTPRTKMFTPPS

PDZRN4_1, Q6ZMN7 = molecular target: PDZRN4_1, Q6ZMN7
PDZRN4_1, Q6ZMN7, sequence (Q6ZMN7 213-318): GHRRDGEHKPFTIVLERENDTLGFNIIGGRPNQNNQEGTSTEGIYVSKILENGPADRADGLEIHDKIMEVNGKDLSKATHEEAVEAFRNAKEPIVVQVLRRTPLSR

PICK1, Q9NRD5 = molecular target: PICK1, Q9NRD5
PICK1, Q9NRD5, sequence (Q9NRD5 17-115): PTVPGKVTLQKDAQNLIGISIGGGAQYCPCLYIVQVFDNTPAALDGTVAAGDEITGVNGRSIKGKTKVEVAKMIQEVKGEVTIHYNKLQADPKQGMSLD

PTPN13_1, Q12923 = molecular target: T7, PTPN13_1, Q12923
T7 sequence (Q12923 1088-1188, limits assumed, looked up): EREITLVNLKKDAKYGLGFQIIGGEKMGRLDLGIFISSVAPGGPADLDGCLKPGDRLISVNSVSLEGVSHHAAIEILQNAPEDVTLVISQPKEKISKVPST

PTPN3, P26045 = molecular target: PTPN3, P26045
PTPN3, P26045, sequence (P26045 505-587): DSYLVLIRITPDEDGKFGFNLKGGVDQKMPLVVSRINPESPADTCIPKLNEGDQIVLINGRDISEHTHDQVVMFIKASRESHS

SCRIB_2, Q14160 = molecular target: SCRIB_2, Q14160
SCRIB_2, Q14160, sequence (Q14160 857-960): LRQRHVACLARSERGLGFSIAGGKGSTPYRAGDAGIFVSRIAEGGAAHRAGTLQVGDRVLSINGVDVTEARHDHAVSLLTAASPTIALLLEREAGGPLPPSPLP

SNTB1, Q13884 = molecular target: T8, SNTB1, Q13884
T8 sequence (Q13884 107-205, limits assumed, looked up): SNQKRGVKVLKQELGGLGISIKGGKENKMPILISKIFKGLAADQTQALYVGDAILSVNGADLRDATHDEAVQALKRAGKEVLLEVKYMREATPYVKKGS

SYNJ2BP, P57105 = molecular target: T9, SYNJ2BP, P57105
T9 sequence (P57105 8-110, limits assumed, looked up): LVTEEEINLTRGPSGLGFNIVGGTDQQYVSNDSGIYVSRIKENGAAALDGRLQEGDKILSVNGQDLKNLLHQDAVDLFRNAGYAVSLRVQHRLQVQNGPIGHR

TIAM2, Q8IVF5 = molecular target: T10, TIAM2, Q8IVF5
T10 sequence (Q8IVF5 885-986, limits assumed, looked up): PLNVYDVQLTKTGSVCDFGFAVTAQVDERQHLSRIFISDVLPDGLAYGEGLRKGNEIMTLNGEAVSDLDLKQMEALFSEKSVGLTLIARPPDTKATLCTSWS

TJP3_3, O95049 = molecular target: T11, TJP3_3, O95049
T11 sequence (O95049 375-456, limits assumed, looked up): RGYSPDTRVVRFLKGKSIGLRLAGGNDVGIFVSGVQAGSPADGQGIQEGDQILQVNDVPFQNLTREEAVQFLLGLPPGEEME

[1] = plain residues with an end cap or a label only (N-terminal biotin on a linker: ahx)
[2] = plain residues with an end cap or a label only (N-terminal biotin on a linker: ado-ado)

B1: PDLIM2, Q96JY6 (peptide)
chain: SAPATLSSRA
- pKd (APBA2_1, Q99767; [1]): below the threshold
- pKd (APBA3_1, O96018; [1]): below the threshold
- pKd (DFNB31_3, Q9P202; [1]): below the threshold
- pKd (DLG2_3, Q15700; [1]): below the threshold
- pKd (DLG4_2, P78352; [1]): below the threshold
- pKd (FRMPD2_2, Q68DX3; [1]): below the threshold
- pKd (FRMPD2_3, Q68DX3; [1]): below the threshold
- pKd (GIPC2, Q8TF65; [1]): below the threshold
- pKd (GORASP1, Q9BQQ3; [1]): below the threshold
- pKd (GRIP1_2, Q9Y3R0; [1]): below the threshold
- pKd (GRIP2_7, Q9C0E4; [1]): below the threshold
- pKd (Inadl_1, Q8NI35; [1]): below the threshold
- pKd (Inadl_2, Q8NI35; [1]): below the threshold
- pKd (MAGI2_6, Q86UL8; [1]): below the threshold
- pKd (NHERF4_2, Q86UT5; [1]): below the threshold
- pKd (PDZD7_3, Q9H5P4; [1]): below the threshold
- pKd (PDZRN3_1, Q9UPQ7; [1]): below the threshold
- pKd (PDZRN4_1, Q6ZMN7; [1]): below the threshold
- pKd (PICK1, Q9NRD5; [1]): below the threshold
- pKd (PTPN13_1, Q12923; [1]): below the threshold
- pKd (PTPN3, P26045; [1]): below the threshold
- pKd (SCRIB_2, Q14160; [1]): below the threshold
- pKd (SNTB1, Q13884; [1]): below the threshold
- pKd (SYNJ2BP, P57105; [1]): below the threshold
- pKd (TIAM2, Q8IVF5; [1]): below the threshold
- pKd (TJP3_3, O95049; [1]): below the threshold

B2: DCHS2, Q6V1P9 (peptide)
chain: ELKAEDEVQI
- pKd (APBA2_1, Q99767; [2]): below the threshold
- pKd (APBA3_1, O96018; [2]): below the threshold
- pKd (DFNB31_3, Q9P202; [2]): below the threshold
- pKd (DLG2_3, Q15700; [2]): below the threshold
- pKd (DLG4_2, P78352; [2]): below the threshold
- pKd (FRMPD2_2, Q68DX3; [2]): below the threshold
- pKd (FRMPD2_3, Q68DX3; [2]): below the threshold
- pKd (GIPC2, Q8TF65; [2]): below the threshold
- pKd (GORASP1, Q9BQQ3; [2]): below the threshold
- pKd (GRIP1_2, Q9Y3R0; [2]): below the threshold
- pKd (GRIP2_7, Q9C0E4; [2]): below the threshold
- pKd (Inadl_1, Q8NI35; [2]): below the threshold
- pKd (Inadl_2, Q8NI35; [2]): below the threshold
- pKd (MAGI2_6, Q86UL8; [2]): below the threshold
- pKd (NHERF4_2, Q86UT5; [2]): below the threshold
- pKd (PDZD7_3, Q9H5P4; [2]): below the threshold
- pKd (PDZRN3_1, Q9UPQ7; [2]): below the threshold
- pKd (PDZRN4_1, Q6ZMN7; [2]): below the threshold
- pKd (PICK1, Q9NRD5; [2]): 4.13
- pKd (PTPN13_1, Q12923; [2]): below the threshold
- pKd (PTPN3, P26045; [2]): below the threshold
- pKd (SCRIB_2, Q14160; [2]): below the threshold
- pKd (SNTB1, Q13884; [2]): below the threshold
- pKd (SYNJ2BP, P57105; [2]): below the threshold
- pKd (TIAM2, Q8IVF5; [2]): 3.52
- pKd (TJP3_3, O95049; [2]): below the threshold
